Test results as given in the supplement of paper PMC9233669.
Variants at the floor of the assay were thinned out.

How the values were obtained:
biotinyl-Ile-oxazolone = experiment: self-aminoacylation, catalytic enhancement (BIO) (fold over background); higher = more active; k-Seq, kA / k0A0; sequences stand for … in GGGAAUGGAUCCACAUCUACGAAUUC…UUCACUGCAGACUUGACGAAGCUG
In short: (§1)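 Mutagenized RNA pools (0.43 μM; 21-nt variable region) were treated with 2–1250 μM of each biotinyl-aminoacyl-oxazolone. Conditions were 50 μL HEPES/NaCl/KCl/MgCl2/CaCl2 buffer, 5% acetonitrile, pH 6.9–7.0, room temperature, 90 minutes. Catalytic enhancement, the median kA relative to the uncatalyzed rate, was derived from streptavidin capture, qPCR and Illumina sequencing.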

biotinyl-Met-oxazolone = experiment: self-aminoacylation, catalytic enhancement (BMO) (fold over background); higher = more active; k-Seq, kA / k0A0; sequences stand for … in GGGAAUGGAUCCACAUCUACGAAUUC…UUCACUGCAGACUUGACGAAGCUG
In short: as §1

biotinyl-Trp-oxazolone = experiment: self-aminoacylation, catalytic enhancement (BWO) (fold over background); higher = more active; k-Seq, kA / k0A0; sequences stand for … in GGGAAUGGAUCCACAUCUACGAAUUC…UUCACUGCAGACUUGACGAAGCUG
In short: as §1

biotinyl-Val-oxazolone = experiment: self-aminoacylation, catalytic enhancement (BVO) (fold over background); higher = more active; k-Seq, kA / k0A0; sequences stand for … in GGGAAUGGAUCCACAUCUACGAAUUC…UUCACUGCAGACUUGACGAAGCUG
In short: as §1

biotinyl-Leu-oxazolone = experiment: self-aminoacylation, catalytic enhancement (BLO) (fold over background); higher = more active; k-Seq, kA / k0A0; sequences stand for … in GGGAAUGGAUCCACAUCUACGAAUUC…UUCACUGCAGACUUGACGAAGCUG
In short: as §1

biotinyl-Phe-oxazolone = experiment: self-aminoacylation, catalytic enhancement (BFO) (fold over background); higher = more active; k-Seq, kA / k0A0; sequences stand for … in GGGAAUGGAUCCACAUCUACGAAUUC…UUCACUGCAGACUUGACGAAGCUG
In short: as §1

AAGUUCGCUAAUAGUUGCAAG [Fam3.1 aminoacylation ribozyme variant]
self-aminoacylation (biotinyl-Ile-oxazolone): 1.52
self-aminoacylation (biotinyl-Met-oxazolone): 1.47
self-aminoacylation (biotinyl-Trp-oxazolone): 1.12
self-aminoacylation (biotinyl-Val-oxazolone): 1.22
self-aminoacylation (biotinyl-Leu-oxazolone): 1.33
self-aminoacylation (biotinyl-Phe-oxazolone): 1.71

AAGUUCGCUAUUAGUCGCAAG [Fam3.1 aminoacylation ribozyme variant]
self-aminoacylation (biotinyl-Ile-oxazolone): 2
self-aminoacylation (biotinyl-Met-oxazolone): 1.82
self-aminoacylation (biotinyl-Trp-oxazolone): 1.44
self-aminoacylation (biotinyl-Val-oxazolone): 1.5
self-aminoacylation (biotinyl-Leu-oxazolone): 2.14
self-aminoacylation (biotinyl-Phe-oxazolone): 2.21

AAGUUGGCUAAUAGGCGCAAG [Fam3.1 aminoacylation ribozyme variant]
self-aminoacylation (biotinyl-Ile-oxazolone): 1.71
self-aminoacylation (biotinyl-Met-oxazolone): 1.14
self-aminoacylation (biotinyl-Trp-oxazolone): 1.19
self-aminoacylation (biotinyl-Val-oxazolone): 1.23
self-aminoacylation (biotinyl-Leu-oxazolone): 1.41
self-aminoacylation (biotinyl-Phe-oxazolone): 1.49

AAGUUGGCUAAUAGUCGCAUG [Fam3.1 aminoacylation ribozyme variant]
self-aminoacylation (biotinyl-Ile-oxazolone): 1.77
self-aminoacylation (biotinyl-Met-oxazolone): 1.88
self-aminoacylation (biotinyl-Trp-oxazolone): 2
self-aminoacylation (biotinyl-Val-oxazolone): 1.51
self-aminoacylation (biotinyl-Leu-oxazolone): 2.19
self-aminoacylation (biotinyl-Phe-oxazolone): 1.69

AAGUUGGCUAAUAGUCGUAAG [Fam3.1 aminoacylation ribozyme variant]
self-aminoacylation (biotinyl-Ile-oxazolone): 1.49
self-aminoacylation (biotinyl-Met-oxazolone): 1.33
self-aminoacylation (biotinyl-Trp-oxazolone): 4.1
self-aminoacylation (biotinyl-Val-oxazolone): 1.37
self-aminoacylation (biotinyl-Leu-oxazolone): 1.14
self-aminoacylation (biotinyl-Phe-oxazolone): 10.7

AAGUUGGCUACUAGUCGCAAG [Fam3.1 aminoacylation ribozyme variant]
self-aminoacylation (biotinyl-Ile-oxazolone): 1.65
self-aminoacylation (biotinyl-Met-oxazolone): 1.2
self-aminoacylation (biotinyl-Trp-oxazolone): 1.42
self-aminoacylation (biotinyl-Val-oxazolone): 1.76
self-aminoacylation (biotinyl-Leu-oxazolone): 1.86
self-aminoacylation (biotinyl-Phe-oxazolone): 1.58

AAGUUGGCUAGUAGUCGCAAG [Fam3.1 aminoacylation ribozyme variant]
self-aminoacylation (biotinyl-Ile-oxazolone): 1.65
self-aminoacylation (biotinyl-Met-oxazolone): 1.21
self-aminoacylation (biotinyl-Trp-oxazolone): 1.51
self-aminoacylation (biotinyl-Val-oxazolone): 1.65
self-aminoacylation (biotinyl-Leu-oxazolone): 1.65
self-aminoacylation (biotinyl-Phe-oxazolone): 2.98

AAGUUGGCUAUUAGUCGCAAG [Fam3.1 aminoacylation ribozyme variant]
self-aminoacylation (biotinyl-Ile-oxazolone): 2
self-aminoacylation (biotinyl-Met-oxazolone): 1.36
self-aminoacylation (biotinyl-Trp-oxazolone): 1.85
self-aminoacylation (biotinyl-Val-oxazolone): 1.49
self-aminoacylation (biotinyl-Leu-oxazolone): 1.62
self-aminoacylation (biotinyl-Phe-oxazolone): 1.55

AAGUUUACUAAUAGUAGCAAG [Fam3.1 aminoacylation ribozyme variant]
self-aminoacylation (biotinyl-Ile-oxazolone): 1.54
self-aminoacylation (biotinyl-Met-oxazolone): 1.28
self-aminoacylation (biotinyl-Trp-oxazolone): 0.98
self-aminoacylation (biotinyl-Val-oxazolone): 1.22
self-aminoacylation (biotinyl-Leu-oxazolone): 1.17
self-aminoacylation (biotinyl-Phe-oxazolone): 1.97

AAGUUUACUAAUAGUCGCAGG [Fam3.1 aminoacylation ribozyme variant]
self-aminoacylation (biotinyl-Ile-oxazolone): 1.55
self-aminoacylation (biotinyl-Met-oxazolone): 1.25
self-aminoacylation (biotinyl-Trp-oxazolone): 1.61
self-aminoacylation (biotinyl-Val-oxazolone): 1.34
self-aminoacylation (biotinyl-Leu-oxazolone): 1.6
self-aminoacylation (biotinyl-Phe-oxazolone): 2.36

AAGUUUACUAAUAGUCGCAUG [Fam3.1 aminoacylation ribozyme variant]
self-aminoacylation (biotinyl-Ile-oxazolone): 1.49
self-aminoacylation (biotinyl-Met-oxazolone): 1.25
self-aminoacylation (biotinyl-Trp-oxazolone): 1.68
self-aminoacylation (biotinyl-Val-oxazolone): 1.13
self-aminoacylation (biotinyl-Leu-oxazolone): 1.34
self-aminoacylation (biotinyl-Phe-oxazolone): 2.25

AAGUUUACUAAUAGUCGCCAG [Fam3.1 aminoacylation ribozyme variant]
self-aminoacylation (biotinyl-Ile-oxazolone): 1.42
self-aminoacylation (biotinyl-Met-oxazolone): 1.23
self-aminoacylation (biotinyl-Trp-oxazolone): 1.31
self-aminoacylation (biotinyl-Val-oxazolone): 1.21
self-aminoacylation (biotinyl-Leu-oxazolone): 1.24
self-aminoacylation (biotinyl-Phe-oxazolone): 1.61

AAGUUUACUAAUAGUCUCAAG [Fam3.1 aminoacylation ribozyme variant]
self-aminoacylation (biotinyl-Ile-oxazolone): 1.15
self-aminoacylation (biotinyl-Met-oxazolone): 0.844
self-aminoacylation (biotinyl-Trp-oxazolone): 1.23
self-aminoacylation (biotinyl-Val-oxazolone): 1.29
self-aminoacylation (biotinyl-Leu-oxazolone): 1.11
self-aminoacylation (biotinyl-Phe-oxazolone): 2.39

AAGUUUACUAAUCGUCGCAAG [Fam3.1 aminoacylation ribozyme variant]
self-aminoacylation (biotinyl-Ile-oxazolone): 1.64
self-aminoacylation (biotinyl-Met-oxazolone): 1.13
self-aminoacylation (biotinyl-Trp-oxazolone): 1.35
self-aminoacylation (biotinyl-Val-oxazolone): 1.46
self-aminoacylation (biotinyl-Leu-oxazolone): 1.55
self-aminoacylation (biotinyl-Phe-oxazolone): 2.66

AAGUUUACUAAUGGUCGCAAG [Fam3.1 aminoacylation ribozyme variant]
self-aminoacylation (biotinyl-Ile-oxazolone): 1.59
self-aminoacylation (biotinyl-Met-oxazolone): 1.28
self-aminoacylation (biotinyl-Trp-oxazolone): 2.06
self-aminoacylation (biotinyl-Val-oxazolone): 1.1
self-aminoacylation (biotinyl-Leu-oxazolone): 1.47
self-aminoacylation (biotinyl-Phe-oxazolone): 1.64

AAGUUUCCUAAUAGUCGCAAU [Fam3.1 aminoacylation ribozyme variant]
self-aminoacylation (biotinyl-Ile-oxazolone): 2.34
self-aminoacylation (biotinyl-Met-oxazolone): 1.79
self-aminoacylation (biotinyl-Trp-oxazolone): 2.47
self-aminoacylation (biotinyl-Val-oxazolone): 1.88
self-aminoacylation (biotinyl-Leu-oxazolone): 2.04
self-aminoacylation (biotinyl-Phe-oxazolone): 4.15

AAGUUUCCUAAUAGUCGCAUG [Fam3.1 aminoacylation ribozyme variant]
self-aminoacylation (biotinyl-Ile-oxazolone): 2.28
self-aminoacylation (biotinyl-Met-oxazolone): 1.89
self-aminoacylation (biotinyl-Trp-oxazolone): 2.11
self-aminoacylation (biotinyl-Val-oxazolone): 1.9
self-aminoacylation (biotinyl-Leu-oxazolone): 1.94
self-aminoacylation (biotinyl-Phe-oxazolone): 2.38

AAGUUUCCUAAUAGUGGCAAG [Fam3.1 aminoacylation ribozyme variant]
self-aminoacylation (biotinyl-Ile-oxazolone): 0.838
self-aminoacylation (biotinyl-Met-oxazolone): 0.752
self-aminoacylation (biotinyl-Trp-oxazolone): 0.634
self-aminoacylation (biotinyl-Val-oxazolone): 0.902
self-aminoacylation (biotinyl-Leu-oxazolone): 0.642
self-aminoacylation (biotinyl-Phe-oxazolone): 0.605

AAGUUUCCUCAUAGUCGCAAG [Fam3.1 aminoacylation ribozyme variant]
self-aminoacylation (biotinyl-Ile-oxazolone): 2.1
self-aminoacylation (biotinyl-Met-oxazolone): 1.39
self-aminoacylation (biotinyl-Trp-oxazolone): 1.84
self-aminoacylation (biotinyl-Val-oxazolone): 2.08
self-aminoacylation (biotinyl-Leu-oxazolone): 2
self-aminoacylation (biotinyl-Phe-oxazolone): 3.38

AAGUUUCCUGAUAGUCGCAAG [Fam3.1 aminoacylation ribozyme variant]
self-aminoacylation (biotinyl-Ile-oxazolone): 1.67
self-aminoacylation (biotinyl-Met-oxazolone): 1.69
self-aminoacylation (biotinyl-Trp-oxazolone): 1.49
self-aminoacylation (biotinyl-Val-oxazolone): 1.54
self-aminoacylation (biotinyl-Leu-oxazolone): 1.69
self-aminoacylation (biotinyl-Phe-oxazolone): 3.33

AAGUUUGAUAAUAGGCGCAAG [Fam3.1 aminoacylation ribozyme variant]
self-aminoacylation (biotinyl-Ile-oxazolone): 0.704
self-aminoacylation (biotinyl-Met-oxazolone): 0.523
self-aminoacylation (biotinyl-Trp-oxazolone): 0.74
self-aminoacylation (biotinyl-Val-oxazolone): 0.551
self-aminoacylation (biotinyl-Leu-oxazolone): 0.59
self-aminoacylation (biotinyl-Phe-oxazolone): 0.836

AAGUUUGAUAAUAGUCGAAAG [Fam3.1 aminoacylation ribozyme variant]
self-aminoacylation (biotinyl-Ile-oxazolone): 0.705
self-aminoacylation (biotinyl-Met-oxazolone): 0.568
self-aminoacylation (biotinyl-Trp-oxazolone): 0.785
self-aminoacylation (biotinyl-Val-oxazolone): 0.592
self-aminoacylation (biotinyl-Leu-oxazolone): 0.543
self-aminoacylation (biotinyl-Phe-oxazolone): 1.03

AAGUUUGCAAACAGUCGCAAG [Fam3.1 aminoacylation ribozyme variant]
self-aminoacylation (biotinyl-Ile-oxazolone): 0.775
self-aminoacylation (biotinyl-Met-oxazolone): 0.798
self-aminoacylation (biotinyl-Trp-oxazolone): 0.595
self-aminoacylation (biotinyl-Val-oxazolone): 0.735
self-aminoacylation (biotinyl-Leu-oxazolone): 0.93
self-aminoacylation (biotinyl-Phe-oxazolone): 1.47
